Each block holds one molecule with its values, some of them ahead of it. No end group written: not given here.
What was measured:
Type in all cases: cell-based
[1] = tested on: HCT116 colon cancer cell line; test: Maestro Z impedance-based assay on HCT116 cells stably over-expressing target protein; conditions: 2 days
Protocol: Over-expression: Stable over-expression tumor cell lines were made by transduction using lentivirus. For virus production, HEK-293T cells were cultured in DMEM with high glucose and GlutaMAX™ medium (ThermoFisher) supplemented with 10% FBS. After 24 h, cells were transfected using lipofectamine 3000 (ThermoFisher) of Lentiviral packaging plasmid mix (CELLECTA) and pGenLenti plasmids (GenScript Inc) containing: 1) no insert, 2) Target Protein encoding sequence, and 3) the AP2A1 protein (positive control for cell proliferation; https://doi.org/10.1038/sj.one.1205216), into HCT116 (Colon cancer cell line; ATCC). A Myc-tag (EQKLISEEDL) was added to the c-terminus of the expressed protein. After 48 hr post-transfection, culture media containing viruses was collected, loaded onto a 10 ml syringe and filtered through a 0.45 μm filter. […]
Maestro Z Impedance-based assay: The Maestro Z platform (Axion Biosystems) uses impedance measurements (ohms, (2) to quantify the presence of cells on the electrode. Since impedance is noninvasive and label-free, impedance assay is used to quantify dynamic cellular growth over time. For impedance recording, cells were seeded in 96 well assay plate, and the plate was docked in the Maestro Z and the automatic environment controls set the chamber to 37° C. and 5% CO2. Impedance measurements were recorded every minute for the 2 days.

HepG2 cells = test: Caspase-Glo 3/7 apoptosis assay, peptide-treated HepG2 cells; conditions: listed = significant
Protocol: Cell Culture: Tumor cell lines HCT-116 (Colon Cancer Cell line, ATCC) and U2OS (Osteoscarcoma Cell line, ATCC) cells were grown adherently in ATCC-formulated McCoy's 5a medium supplemented with 10% FBS and 1× penicillin-streptomycin at 37° C. (5% CO2). Jurkat cells (acute T-cell leukemia cell line, ATCC) were grown as suspension cultures in ATCC-formulated RPMI-1640 supplemented with 10% FBS and 1× penicillin-streptomycin at 37° C. (5% CO2). HEP-G2 cells (Liver Cancer Cell line, ATCC) cells were grown adherently in ATCC-formulated Eagle's Minimum Essential Medium (EMEM) supplemented with 10% FBS and 1× penicillin-streptomycin at 37° C. (5% CO2). […]
Apoptosis Assay: Following 24 hrs of peptide treatment, an equal volume reconstituted Caspase-Glo® 3/7 assay reagent mixture (Promega) was added to the cells. […] The treated plates were then read for luminescence on Promega™ GloMax® Plate Reader. A blank reaction that contained caspase-Glo® 3/7 reagent, vehicle and cell culture medium without cells was used to measure background luminescence. […] Significant difference in apoptosis was determined using ANOVA analysis by comparing cells treated with SEQ ID NO: 37997 peptide to cells treated with an irrelevant control peptide, or vehicle control treated cells.

Jurkat cells = test: Caspase-Glo 3/7 apoptosis assay, peptide-treated Jurkat cells; conditions: listed = significant
Protocol: (§1) Cell Culture: Tumor cell lines HCT-116 (Colon Cancer Cell line, ATCC) and U2OS (Osteoscarcoma Cell line, ATCC) cells were grown adherently in ATCC-formulated McCoy's 5a medium supplemented with 10% FBS and 1× penicillin-streptomycin at 37° C. (5% CO2). Jurkat cells (acute T-cell leukemia cell line, ATCC) were grown as suspension cultures in ATCC-formulated RPMI-1640 supplemented with 10% FBS and 1× penicillin-streptomycin at 37° C. (5% CO2). HEP-G2 cells (Liver Cancer Cell line, ATCC) cells were grown adherently in ATCC-formulated Eagle's Minimum Essential Medium (EMEM) supplemented with 10% FBS and 1× penicillin-streptomycin at 37° C. (5% CO2).
(§2) Peptide Treatment: Target protein SEQ ID NO: 37997 was synthesized through Fluorenylmethyloxycarbonyl (Fmoc) protection group chemistry using Solid Phase Peptide Synthesis (SPPS). 5 μM of target peptide and control peptides were added to a 96 well plate containing 10,000 cells (100 μL/well). A white-walled 96-well plate adequate for cell culture and compatible with the luminometer was used. (Corning)
(§3) Apoptosis Assay: Following 24 hrs of peptide treatment, an equal volume reconstituted Caspase-Glo® 3/7 assay reagent mixture (Promega) was added to the cells. The contents of wells were gently mixed using a plate shaker at 300-500 rpm for 30 seconds. The plate was then Incubate at room temperature for 3 hours. The treated plates were then read for luminescence on Promega™ GloMax® Plate Reader. A blank reaction that contained caspase-Glo® 3/7 reagent, vehicle and cell culture medium without cells was used to measure background luminescence. The blank reaction values were subtracted from experimental values. A negative control that contained caspase-Glo® 3/7 reagent and vehicle-treated cells in medium was included to determine the basal caspase activity of the cell culture system. Significant difference in apoptosis was determined using ANOVA analysis by comparing cells treated with SEQ ID NO: 37997 peptide to cells treated with an irrelevant control peptide, or vehicle control treated cells.

U2OS cells = test: Caspase-Glo 3/7 apoptosis assay, peptide-treated U2OS cells; conditions: listed = significant
Protocol: as §1, §2, §3

C3AR1 = target: T1, C3AR1 (Homo sapiens, UniProt Q16581); test: PathHunter β-Arrestin C3AR1 human complement peptide GPCR agonist assay (gpcrMAX screening and hit-confirmation); conditions: for % activity with respect to known agonist, C3A Receptor Agonist: hit-confirmation
T1 sequence (Q16581 1-482): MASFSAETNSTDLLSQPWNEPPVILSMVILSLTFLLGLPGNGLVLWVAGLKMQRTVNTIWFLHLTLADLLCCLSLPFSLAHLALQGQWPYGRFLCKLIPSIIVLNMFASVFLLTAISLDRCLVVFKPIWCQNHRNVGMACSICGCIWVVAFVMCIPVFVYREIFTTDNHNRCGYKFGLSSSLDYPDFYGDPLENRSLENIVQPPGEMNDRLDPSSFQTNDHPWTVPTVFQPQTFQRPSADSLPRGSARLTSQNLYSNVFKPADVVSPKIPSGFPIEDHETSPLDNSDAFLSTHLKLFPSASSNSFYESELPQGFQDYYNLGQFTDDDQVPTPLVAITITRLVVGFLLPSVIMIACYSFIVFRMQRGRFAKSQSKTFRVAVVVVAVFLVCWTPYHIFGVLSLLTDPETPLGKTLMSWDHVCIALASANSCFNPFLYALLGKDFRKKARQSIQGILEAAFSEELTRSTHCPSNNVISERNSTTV
Protocol: SEQ ID NO: 30949 blocks CXCR4 and cancer cell migration, making it suitable in the treatment of multiple cancers. Whereas SEQ ID NO: 34229 agonizes C3AR1, a key regulator of immune response and inflammation. The target proteins SEQ ID NO: 30949 and SEQ ID NO: 34229 were treated with gpcrMAX, which is a comprehensive panel covering 168 G protein-coupled receptors (GPCRs) from over 60 distinct receptor families. This panel utilizes PathHunter® β-Arrestin technology (Eurofins DiscoverX). PathHunter β-Arrestin GPCR cell lines are engineered to co-express the ProLink™ (PK) tagged GPCR and the Enzyme Acceptor (EA) tagged β-Arrestin. Activation of the GPCR-PK induces β-Arrestin-EA recruitment, forcing complementation of the two β-galactosidase enzyme fragments (EA and PK). The resulting functional enzyme hydrolyzes substrate to generate a chemiluminescent signal.
Cell Handling: PathHunter® cell lines were expanded from freezer stocks according to standard procedures. Cells were seeded in a total volume of 20 μL into white walled, 384-well microplates and incubated at 37° C. for the appropriate time prior to testing. […]
Signal Detection: Assay signal was generated through a single addition of 12.5 or 15 μL (50% v/v) of PathHunter® Detection reagent cocktail, followed by a one-hour incubation at room temperature. Microplates were read following signal generation with a PerkinElmer Envision™ instrument for chemiluminescent signal detection.
Data Analysis: Compound activity was analyzed using CBIS data analysis suite (ChemInnovation, CA). For agonist mode assays, percentage activity was calculated using the following formula: % Activity=100%×(mean RLU of test sample−mean RLU of vehicle control)/(mean MAX control ligand−mean RLU of vehicle control). For antagonist mode assays, percentage inhibition was calculated using the following formula: % Inhibition=100%×(1−(mean RLU of test sample−mean RLU of vehicle control)/(mean RLU of EC80 control−mean RLU of vehicle control)).

[2] = tested on: HCT116 colon cancer cell line; test: WST-1 proliferation assay on HCT116 cells stably over-expressing target protein; conditions: low serum (0.1% FBS); 48 hours
Protocol: Over-expression: Stable over-expression tumor cell lines were made by transduction using lentivirus. For virus production, HEK-293T cells were cultured in DMEM with high glucose and GlutaMAX™ medium (ThermoFisher) supplemented with 10% FBS. After 24 h, cells were transfected using lipofectamine 3000 (ThermoFisher) of Lentiviral packaging plasmid mix (CELLECTA) and pGenLenti plasmids (GenScript Inc) containing: 1) no insert, 2) Target Protein encoding sequence, and 3) the AP2A1 protein (positive control for cell proliferation; https://doi.org/10.1038/sj.one.1205216), into HCT116 (Colon cancer cell line; ATCC). A Myc-tag (EQKLISEEDL) was added to the c-terminus of the expressed protein. After 48 hr post-transfection, culture media containing viruses was collected, loaded onto a 10 ml syringe and filtered through a 0.45 μm filter. For cell transduction, HCT116 colorectal cancer cells were seeded in 6-well plates, the virus was added to the cells. After post-transduction, stable cell mixed populations are selected for with puromycin for 14 days. Expression of the Target Protein and controls are confirmed by immunoblot of 50 μg of cell lysate using anti-myc-tag polyclonal antibody (CST).
Proliferation: Polyclonal cell lines that over-express the Target Protein or control, wild-type HCT-116 cells, were plated in 96 well plate (10,000 or 5,000 cells per well) grown in standard media in both low serum (0.1% FBS) and high serum (10% FBS) conditions, respectively. After 48 hours, the cells are subjected to the WST-1 ([…]) assay. The WST-1 assay (Sigma) is a measure of the metabolic activity of group of cells. The higher the metabolic activity the higher the proliferation rate. Significant differences in proliferation are determined by comparing protein-expressing cell lines with a stable cell line of the empty expression vector (control) using ANOVA analysis.

Molecule: SEQ ID NO: 30462: target protein over-expressed (Myc-tagged) in stable HCT116 cell line; oncogene (METFEIFYLKCIRVNLISRQLNTFFLAVLLVVCMPCFHSVCTGKRT; cysteine pairing not given here; also: Myc tag; listed as Homo sapiens)
proliferation over time (impedance) on over-expression vs Empty Vector [1]: significantly increases proliferation

Molecule: SEQ ID NO: 34224: ORF peptide; sequence only in Sequence Listing (MSFDHPEKNGPWPADPINLPSHG; listed as Homo sapiens)
z-score compared to vehicle control (peptides inducing significant apoptosis) (HepG2 cells): SEQ ID NO: 34224
peptides inducing significant apoptosis vs vehicle control (Jurkat cells): SEQ ID NO: 34224

GPCR ligand mode at C3AR1 (C3AR1; gpcrMAX panel): agonist of C3AR1
% activity with respect to known agonist, C3A Receptor Agonist (C3AR1; 0.3 μM): significant activity
% activity with respect to known agonist, C3A Receptor Agonist (C3AR1; 1 μM): significant activity
Molecule: SEQ ID NO: 34229: novel peptide GPCR ligand that agonizes C3AR1; sequence only in Sequence Listing (MWILRDRAVHELQAVLLALVLGR; listed as Homo sapiens)
z-score compared to vehicle control (peptides inducing significant apoptosis) (U2OS cells): SEQ ID NO: 34229
peptides inducing significant apoptosis vs vehicle control (Jurkat cells): SEQ ID NO: 34229

B1: SEQ ID NO: 26966: ORF peptide; sequence only in Sequence Listing (peptide, listed as Homo sapiens)
chain: VSPRFLVLKSSPAHRDSDSPQTPRLRVMESRTLLLLFSGAVALIQTWADYNYNQGRNDLIFTLQLWKRQ
z-score compared to vehicle control (peptides inducing significant apoptosis) (HepG2 cells): SEQ ID NO: 26966

B2: AP2A: published oncoprotein, over-expressed positive control for cell proliferation (protein, UniProt O95782 1-977, looked up)
AP-2 complex subunit alpha-1: MPAVSKGDGMRGLAVFISDIRNCKSKEAEIKRINKELANIRSKFKGDKALDGYSKKKYVCKLLFIFLLGHDIDFGHMEAVNLLSSNKYTEKQIGYLFISVLVNSNSELIRLINNAIKNDLASRNPTFMCLALHCIANVGSREMGEAFAADIPRILVAGDSMDSVKQSAALCLLRLYKASPDLVPMGEWTARVVHLLNDQHMGVVTAAVSLITCLCKKNPDDFKTCVSLAVSRLSRIVSSASTDLQDYTYYFVPAPWLSVKLLRLLQCYPPPEDAAVKGRLVECLETVLNKAQEPPKSKKVQHSNAKNAILFETISLIIHYDSEPNLLVRACNQLGQFLQHRETNLRYLALESMCTLASSEFSHEAVKTHIDTVINALKTERDVSVRQRAADLLYAMCDRSNAKQIVSEMLRYLETADYAIREEIVLKVAILAEKYAVDYSWYVDTILNLIRIAGDYVSEEVWYRVLQIVTNRDDVQGYAAKTVFEALQAPACHENMVKVGGYILGEFGNLIAGDPRSSPPVQFSLLHSKFHLCSVATRALLLSTYIKFINLFPETKATIQGVLRAGSQLRNADVELQQRAVEYLTLSSVASTDVLATVLEEMPPFPERESSILAKLKRKKGPGAGSALDDGRRDPSSNDINGGMEPTPSTVSTPSPSADLLGLRAAPPPAAPPASAGAGNLLVDVFDGPAAQPSLGPTPEEAFLSELEPPAPESPMALLADPAPAADPGPEDIGPPIPEADELLNKFVCKNNGVLFENQLLQIGVKSEFRQNLGRMYLFYGNKTSVQFQNFSPTVVHPGDLQTQLAVQTKRVAAQVDGGAQVQQVLNIECLRDFLTPPLLSVRFRYGGAPQALTLKLPVTINKFFQPTEMAAQDFFQRWKQLSLPQQEAQKIFKANHPMDAEVTKAKLLGFGSALLDNVDPNPENFVGAGIIQTKALQVGCLLRLEPNAQAQMYRLTLRTSKEPVSRHLCELLAQQF
proliferation over time (impedance) on over-expression vs Empty Vector [1]: significantly increases proliferation
proliferation (WST-1) on over-expression vs Empty Vector [2]: significantly increases proliferation

Reference: patent publication US20260193644A1, “Compositions and Methods For Modulation of Tumor Suppressors and Oncogenes” (FLAGSHIP PIONEERING INNOVATIONS VII, LLC, priority 2022, published 2026)
